How the values were obtained:
HIF-1α = experiment: Detecting HIF-1α activation in cytosolic extracts of HeLa S3 cells, anti-ARNT capture, real-time PCR; assay type: cell-based, human
Description: HIF-1 DNA binding activity was induced as follows. Actively dividing HeLa S3 cells were treated with 125 μM CoCl2 for 4 hr at 37° C. Cells were washed 2× in tissue culture dishes with ice cold phosphate-buffered saline (PBS) before harvesting. Cells were pelleted at 420×g for 5 min, washed twice with PBS and resuspended in 5 packed cell volumes of buffer A (10 mM Tris-HCl (pH 7.6), 1.5 mM MgCl2, 10 mM KCl, 1 mM DTT) supplemented with Sigma protease inhibitor cocktail (P 8340, Sigma Chemical Co., St. Louis, Mo.). After incubation on ice for 15 min, cells were pelleted at 450×g for 5 min, resuspended in 2 packed cell volumes of buffer C (0.42 M KCl, 20 mM Tris-HCl (pH 7.6), 20% glycerol, 1.5 MM MgCl2, 1 mM DTT and 0.2 mM EDTA) supplemented with Sigma protease inhibitor cocktail. The cells were disrupted using a Branson Sonifier 450 (Branson Ultrasonics Corp., Danbury, Conn.) fitted with a microtip for two 20-second pulses at a 45% duty cycle. After centrifugation at 20,000×g for 5 min, the supernatant was designated as cytosolic extract. The cytosolic extracts from treated and untreated cells were aliquoted and stored at −80° C. […]
Primers PRIHa and PRIHb (0.9 μM final) were added to 2×PCR SYBR® Green Master Mix (Applied Biosystems Cat No. 4309155) and the Master Mix made 1× with Water. […] 50 μl of master mix from each well was transferred to a PCR plate, capped and analyzed by real-time PCR using an Opticon thermocycler (MJ Research, Inc., Watham, Mass.). […]
In brief cytosolic extracts prepared from untreated or CoCl2 treated cells were diluted and exposed to nucleic acid-tracer. […] DNA amplification was monitored using real-time PCR. The process takes only a few hours to complete and provides qualitative or quantitative results.
The PCR data is typically plotted as a primary growth curve. For quantitative and comparative purposes, a threshold cycle (Ct) is defined for each sample. […] The Ct value is typically calculated near the first cycle where the PCR products are amplified at the greatest rate (no reagent is limiting) and where the amplified product is detectable above background. […]

Glucocorticoid receptor [1] = target: T1, Glucocorticoid receptor (UniProt P04150 P04150:1-777); experiment: competition; 100-fold excess reduces tracer signal 68 to 44; details: tags: baculovirus expressed, Panvera P2187 (so in the source)
Glucocorticoid receptor [2] = target: T1, Glucocorticoid receptor; experiment: anti-GR capture PCR; DMSO 82, dexamethasone 68; 25 mM Tris pH 7.9, 60 mM KCl, 4 C; ligand independent; details: tags: baculovirus expressed, Panvera P2187 (so in the source)
Estrogen receptor alpha [3] = target: T2, Estrogen receptor alpha (Homo sapiens, UniProt P03372 P03372:1-595); experiment: anti-ER capture PCR; DMSO 137, estradiol […]; 25 mM Tris pH 8.0, 50 mM KCl, 4 C; ligand independent; details: tags: baculovirus expressed, Panvera P2187; chain copies: 2
Estrogen receptor alpha [4] = target: T2, Estrogen receptor alpha; experiment: competition; 100-fold excess reduces tracer signal 104 to 81; details: tags: baculovirus expressed, Panvera P2187; chain copies: 2

T1 sequence (P04150 whole entry, one chain of several): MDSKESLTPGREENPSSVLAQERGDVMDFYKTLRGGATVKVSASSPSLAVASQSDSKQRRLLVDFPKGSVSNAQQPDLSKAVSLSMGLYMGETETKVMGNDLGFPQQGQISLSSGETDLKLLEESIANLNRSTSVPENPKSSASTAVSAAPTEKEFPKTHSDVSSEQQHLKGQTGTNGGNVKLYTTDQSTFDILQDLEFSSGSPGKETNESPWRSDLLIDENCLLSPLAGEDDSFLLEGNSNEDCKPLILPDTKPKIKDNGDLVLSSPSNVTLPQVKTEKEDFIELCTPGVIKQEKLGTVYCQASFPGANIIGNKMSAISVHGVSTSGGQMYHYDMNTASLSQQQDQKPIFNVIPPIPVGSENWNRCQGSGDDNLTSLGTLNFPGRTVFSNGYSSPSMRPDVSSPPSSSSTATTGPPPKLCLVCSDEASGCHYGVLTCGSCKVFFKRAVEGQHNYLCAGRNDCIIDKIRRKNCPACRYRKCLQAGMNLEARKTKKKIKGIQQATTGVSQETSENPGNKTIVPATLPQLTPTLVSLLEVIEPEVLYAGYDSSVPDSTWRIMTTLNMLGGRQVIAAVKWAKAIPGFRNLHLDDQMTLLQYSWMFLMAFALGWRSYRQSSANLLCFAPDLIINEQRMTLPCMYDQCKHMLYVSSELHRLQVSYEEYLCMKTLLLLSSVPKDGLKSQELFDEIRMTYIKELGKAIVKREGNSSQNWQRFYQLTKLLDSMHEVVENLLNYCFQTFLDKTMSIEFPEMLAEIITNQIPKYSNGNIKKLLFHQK
T2 sequence (P03372 whole entry, one chain of several): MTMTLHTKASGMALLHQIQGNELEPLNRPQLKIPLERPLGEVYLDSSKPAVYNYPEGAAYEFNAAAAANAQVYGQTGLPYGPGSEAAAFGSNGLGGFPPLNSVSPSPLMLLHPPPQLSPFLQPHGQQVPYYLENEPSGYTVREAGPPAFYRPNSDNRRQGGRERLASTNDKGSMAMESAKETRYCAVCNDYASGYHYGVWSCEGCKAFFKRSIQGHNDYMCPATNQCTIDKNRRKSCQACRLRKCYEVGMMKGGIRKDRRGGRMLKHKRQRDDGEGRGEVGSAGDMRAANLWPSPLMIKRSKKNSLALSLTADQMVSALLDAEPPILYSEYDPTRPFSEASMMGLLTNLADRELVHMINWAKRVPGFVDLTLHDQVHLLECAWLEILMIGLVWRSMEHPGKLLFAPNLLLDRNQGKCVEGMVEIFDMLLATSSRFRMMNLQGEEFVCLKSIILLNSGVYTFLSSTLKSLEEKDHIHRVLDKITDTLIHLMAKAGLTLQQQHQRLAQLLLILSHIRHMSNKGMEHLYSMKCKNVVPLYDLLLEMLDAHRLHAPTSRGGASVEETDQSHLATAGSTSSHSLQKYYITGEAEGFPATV

[Cl][Co][Cl] [CoCl2, cobalt chloride]
Ct Value (HIF-1α; cytosol of treated cells (CoCl2), plus 100x DNA competitor): 22.52 | Ct Value (HIF-1α; cytosol of treated cells (CoCl2, 4 hr), no DNA competitor, untreated 23.08): 20.47 | difference of Ct values, treated versus untreated cytosolic preparations (HIF-1α; no DNA competitor): more than 2.60 units

B1: competitor GRE (TGR1/TGR2) (dsDNA)
DNA 1: GCTGTACAGGATGTTCTGCC
DNA 2: GGCAGAACATCCTGTACAGC
binding result (Glucocorticoid receptor [1]): binds

B2: GRE tracer (BGGR1/BGGR2) (dsDNA)
DNA 1: CAACTTCATCCACGTTCACCGCTGTACAGGATGTTCTGCCGTACCTGTCCTTGGCTCTTC
DNA 2: GAAGAGCCAAGGACAGGTACGGCAGAACATCCTGTACAGCGGTGAACGTGGATGAAGTTG
binding result (Glucocorticoid receptor [2]): binds

B3: ERE tracer (VER1/VER2) (dsDNA)
DNA 1: CAACTTCATCCACGTTCACCGTCCAAAGTCAGGTCACAGTGACCTGATCAAAGTTGTACCTGTCCTTGGCTCTTC
DNA 2: GAAGAGCCAAGGACAGGTACAACTTTGATCAGGTCACTGTGACCTGACTTTGGACGGTGAACGTGGATGAAGTTG
binding result (Estrogen receptor alpha [3]): binds

B4: competitor ERE (DX1/DX3) (dsDNA)
DNA 1: CTAGAAAGTCAGGTCACAGTGACCTG
DNA 2: CAGGTCACTGTGACCTGACTTTCTAG
binding result (Estrogen receptor alpha [4]): binds
